Results taken from the supplement of paper PMC9112550, “Optimization of the antimicrobial peptide Bac7 by deep mutational scanning” (BMC Biology, 2022).
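Note: peptides expressed intracellularly from a pBAD plasmid library in pooled LB shake-flask culture, induced with 0.3% L-arabinose, DNA abundance read by NGS, three biological replicates, DESeq2 with apeglm shrinkage.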

These sequences were tested on Escherichia coli TOP10 (assay: shrunken log2 fold change of peptide-encoding DNA abundance (4.5 h post-induction vs induction); higher = less antimicrobial activity (less host growth inhibition)). Conditions: time post-induction: 4.5 h; library: site-saturation at positions 5, 18, 19, 20.
With RRIRIRPPRLPRPRPRPCSPPRP the “shrunken log2 fold change” value was -0.271. RRIRHRPPRLPRPRPRPWGSPRP was tested, and the “shrunken log2 fold change” value was -0.356. In the case of RRIRPRPPRLPRPRPRPGTPPRP, the “shrunken log2 fold change” value is reported as 0.0946. RRIRSRPPRLPRPRPRPCDWPRP was tested, and the “shrunken log2 fold change” value was 0.0154. For RRIRRRPPRLPRPRPRPYWHPRP, the “shrunken log2 fold change” value was -0.484. In the case of RRIRQRPPRLPRPRPRPWCGPRP, the “shrunken log2 fold change” value is reported as -0.00744. With RRIRNRPPRLPRPRPRPNPFPRP the “shrunken log2 fold change” value was -0.0489. In the case of RRIRPRPPRLPRPRPRPIPQPRP, the “shrunken log2 fold change” value is reported as -0.321. With RRIRFRPPRLPRPRPRPKEIPRP the “shrunken log2 fold change” value was -0.0277. With RRIRCRPPRLPRPRPRPTQQPRP the “shrunken log2 fold change” value was -0.0719. For RRIRWRPPRLPRPRPRPVNNPRP, the “shrunken log2 fold change” value was 0.018. In the case of RRIRRRPPRLPRPRPRPIVPPRP, the “shrunken log2 fold change” value is reported as 0.605. With RRIRSRPPRLPRPRPRPCNFPRP the “shrunken log2 fold change” value was -0.702. For RRIRWRPPRLPRPRPRPTIAPRP, the “shrunken log2 fold change” value was 0.367. For RRIRYRPPRLPRPRPRPHNNPRP, the “shrunken log2 fold change” value was -1.16. For RRIRDRPPRLPRPRPRPWMYPRP, the “shrunken log2 fold change” value was -0.267. RRIRGRPPRLPRPRPRPNQYPRP was tested, and the “shrunken log2 fold change” value was -0.166. For RRIRERPPRLPRPRPRPFAMPRP, the “shrunken log2 fold change” value was -0.207. With RRIRHRPPRLPRPRPRPRTIPRP the “shrunken log2 fold change” value was -0.344. RRIRIRPPRLPRPRPRPTPCPRP was tested, and the “shrunken log2 fold change” value was 0.598. In the case of RRIRPRPPRLPRPRPRPVGNPRP, the “shrunken log2 fold change” value is reported as -0.0903. With RRIRMRPPRLPRPRPRPFDVPRP the “shrunken log2 fold change” value was 0.268. For RRIRTRPPRLPRPRPRPCNTPRP, the “shrunken log2 fold change” value was -0.21. In the case of RRIRRRPPRLPRPRPRPTMNPRP, the “shrunken log2 fold change” value is reported as -0.0748. With RRIRGRPPRLPRPRPRPPAGPRP the “shrunken log2 fold change” value was 1.37. In the case of RRIRWRPPRLPRPRPRPAEFPRP, the “shrunken log2 fold change” value is reported as 0.292. In the case of RRIRKRPPRLPRPRPRPGWCPRP, the “shrunken log2 fold change” value is reported as 0.639. In the case of RRIRGRPPRLPRPRPRPLQGPRP, the “shrunken log2 fold change” value is reported as 0.226. RRIRARPPRLPRPRPRPKQGPRP was tested, and the “shrunken log2 fold change” value was 0.373. RRIRMRPPRLPRPRPRPWSEPRP was tested, and the “shrunken log2 fold change” value was 0.0897. For RRIRRRPPRLPRPRPRPCFCPRP, the “shrunken log2 fold change” value was 0.104. In the case of RRIRPRPPRLPRPRPRPVEDPRP, the “shrunken log2 fold change” value is reported as 0.0885. In the case of RRIRIRPPRLPRPRPRPWQRPRP, the “shrunken log2 fold change” value is reported as -0.075. In the case of RRIRARPPRLPRPRPRPHVGPRP, the “shrunken log2 fold change” value is reported as 0.34. In the case of RRIRARPPRLPRPRPRPPDGPRP, the “shrunken log2 fold change” value is reported as 1.3. With RRIRNRPPRLPRPRPRPYMPPRP the “shrunken log2 fold change” value was -0.0173. RRIRSRPPRLPRPRPRPTLVPRP was tested, and the “shrunken log2 fold change” value was 0.366. With RRIRSRPPRLPRPRPRPHPNPRP the “shrunken log2 fold change” value was -0.239. For RRIRARPPRLPRPRPRPCMEPRP, the “shrunken log2 fold change” value was 0.0522. In the case of RRIRERPPRLPRPRPRPPFMPRP, the “shrunken log2 fold change” value is reported as -0.185. In the case of RRIRDRPPRLPRPRPRPCNHPRP, the “shrunken log2 fold change” value is reported as -0.218. In the case of RRIRPRPPRLPRPRPRPKKHPRP, the “shrunken log2 fold change” value is reported as -0.0812. In the case of RRIRSRPPRLPRPRPRPQHWPRP, the “shrunken log2 fold change” value is reported as 0.015. In the case of RRIRTRPPRLPRPRPRPYRMPRP, the “shrunken log2 fold change” value is reported as -0.128. For RRIRTRPPRLPRPRPRPGPYPRP, the “shrunken log2 fold change” value was -0.159. For RRIRIRPPRLPRPRPRPRRYPRP, the “shrunken log2 fold change” value was 0.111. In the case of RRIRPRPPRLPRPRPRPSAYPRP, the “shrunken log2 fold change” value is reported as -0.386. In the case of RRIRNRPPRLPRPRPRPMKYPRP, the “shrunken log2 fold change” value is reported as -0.164. For RRIRKRPPRLPRPRPRPWGTPRP, the “shrunken log2 fold change” value was 0.341. With RRIRNRPPRLPRPRPRPCVTPRP the “shrunken log2 fold change” value was -0.0849. In the case of RRIRGRPPRLPRPRPRPWNWPRP, the “shrunken log2 fold change” value is reported as 0.232. In the case of RRIRGRPPRLPRPRPRPYIVPRP, the “shrunken log2 fold change” value is reported as 0.0237. In the case of RRIRHRPPRLPRPRPRPMCLPRP, the “shrunken log2 fold change” value is reported as -0.0755. In the case of RRIRWRPPRLPRPRPRPSEVPRP, the “shrunken log2 fold change” value is reported as -0.0251. For RRIRMRPPRLPRPRPRPHAMPRP, the “shrunken log2 fold change” value was -0.0135. With RRIRERPPRLPRPRPRPGSPPRP the “shrunken log2 fold change” value was -0.0668. In the case of RRIRVRPPRLPRPRPRPFQYPRP, the “shrunken log2 fold change” value is reported as -0.453. With RRIRTRPPRLPRPRPRPDRYPRP the “shrunken log2 fold change” value was 0.04. RRIRGRPPRLPRPRPRPEDKPRP was tested, and the “shrunken log2 fold change” value was 1.23. In the case of RRIRVRPPRLPRPRPRPHLEPRP, the “shrunken log2 fold change” value is reported as -0.133. RRIRPRPPRLPRPRPRPKIYPRP was tested, and the “shrunken log2 fold change” value was -0.000172. In the case of RRIRVRPPRLPRPRPRPEPEPRP, the “shrunken log2 fold change” value is reported as 0.515. For RRIRYRPPRLPRPRPRPYAWPRP, the “shrunken log2 fold change” value was -0.14. For RRIRVRPPRLPRPRPRPGDIPRP, the “shrunken log2 fold change” value was -0.264. In the case of RRIRHRPPRLPRPRPRPPWHPRP, the “shrunken log2 fold change” value is reported as -0.0707. For RRIRDRPPRLPRPRPRPESTPRP, the “shrunken log2 fold change” value was -0.0182. With RRIRERPPRLPRPRPRPFRRPRP the “shrunken log2 fold change” value was 0.0491. RRIRLRPPRLPRPRPRPFFNPRP was tested, and the “shrunken log2 fold change” value was -0.359. In the case of RRIRDRPPRLPRPRPRPQFIPRP, the “shrunken log2 fold change” value is reported as -0.935. RRIRCRPPRLPRPRPRPSVKPRP was tested, and the “shrunken log2 fold change” value was -0.765. In the case of RRIRARPPRLPRPRPRPFTFPRP, the “shrunken log2 fold change” value is reported as -0.0365. With RRIRTRPPRLPRPRPRPMDMPRP the “shrunken log2 fold change” value was 0.0382. In the case of RRIRERPPRLPRPRPRPEEGPRP, the “shrunken log2 fold change” value is reported as -0.007. For RRIRCRPPRLPRPRPRPEWYPRP, the “shrunken log2 fold change” value was -0.256. For RRIRRRPPRLPRPRPRPTRDPRP, the “shrunken log2 fold change” value was 0.64. In the case of RRIRRRPPRLPRPRPRPNPFPRP, the “shrunken log2 fold change” value is reported as 0.125. For RRIRKRPPRLPRPRPRPWLIPRP, the “shrunken log2 fold change” value was 0.109. In the case of RRIRDRPPRLPRPRPRPRMHPRP, the “shrunken log2 fold change” value is reported as -0.268. In the case of RRIRFRPPRLPRPRPRPFCPPRP, the “shrunken log2 fold change” value is reported as -0.386. For RRIRCRPPRLPRPRPRPCDWPRP, the “shrunken log2 fold change” value was 0.116. In the case of RRIRHRPPRLPRPRPRPHMTPRP, the “shrunken log2 fold change” value is reported as -0.0109. With RRIRPRPPRLPRPRPRPMQEPRP the “shrunken log2 fold change” value was -0.0107. With RRIRDRPPRLPRPRPRPVVQPRP the “shrunken log2 fold change” value was -0.0248. With RRIRRRPPRLPRPRPRPWMVPRP the “shrunken log2 fold change” value was -0.151. RRIRVRPPRLPRPRPRPLMKPRP was tested, and the “shrunken log2 fold change” value was -0.269. For RRIRHRPPRLPRPRPRPINRPRP, the “shrunken log2 fold change” value was 0.0787. With RRIRPRPPRLPRPRPRPCIQPRP the “shrunken log2 fold change” value was -0.209. For RRIRGRPPRLPRPRPRPPNQPRP, the “shrunken log2 fold change” value was 0.535. In the case of RRIRQRPPRLPRPRPRPECVPRP, the “shrunken log2 fold change” value is reported as 0.386. RRIRFRPPRLPRPRPRPFKSPRP was tested, and the “shrunken log2 fold change” value was 0.0901. With RRIRQRPPRLPRPRPRPGGHPRP the “shrunken log2 fold change” value was 0.201. RRIRPRPPRLPRPRPRPVKKPRP was tested, and the “shrunken log2 fold change” value was -0.016. For RRIRARPPRLPRPRPRPNNAPRP, the “shrunken log2 fold change” value was 0.00673. For RRIRNRPPRLPRPRPRPFQKPRP, the “shrunken log2 fold change” value was -0.185. For RRIRNRPPRLPRPRPRPDCEPRP, the “shrunken log2 fold change” value was 0.0108. In the case of RRIRHRPPRLPRPRPRPDAQPRP, the “shrunken log2 fold change” value is reported as 0.0391. For RRIRTRPPRLPRPRPRPNVCPRP, the “shrunken log2 fold change” value was 0.128. RRIRTRPPRLPRPRPRPHMLPRP was tested, and the “shrunken log2 fold change” value was -0.389. In the case of RRIRPRPPRLPRPRPRPHLRPRP, the “shrunken log2 fold change” value is reported as 0.151. For RRIRARPPRLPRPRPRPFGLPRP, the “shrunken log2 fold change” value was 2.49. In the case of RRIRSRPPRLPRPRPRPWFEPRP, the “shrunken log2 fold change” value is reported as -0.0139. RRIRLRPPRLPRPRPRPHYQPRP was tested, and the “shrunken log2 fold change” value was -0.361. RRIRDRPPRLPRPRPRPESYPRP was tested, and the “shrunken log2 fold change” value was 0.0185. In the case of RRIRERPPRLPRPRPRPWNWPRP, the “shrunken log2 fold change” value is reported as -0.131. For RRIRNRPPRLPRPRPRPDVMPRP, the “shrunken log2 fold change” value was -0.275. RRIRNRPPRLPRPRPRPEFHPRP was tested, and the “shrunken log2 fold change” value was -0.0541. RRIRWRPPRLPRPRPRPFGTPRP was tested, and the “shrunken log2 fold change” value was 0.00184. With RRIRHRPPRLPRPRPRPRGDPRP the “shrunken log2 fold change” value was 0.263. For RRIRPRPPRLPRPRPRPKGAPRP, the “shrunken log2 fold change” value was 0.21. In the case of RRIRNRPPRLPRPRPRPESIPRP, the “shrunken log2 fold change” value is reported as -0.24. For RRIRERPPRLPRPRPRPCKNPRP, the “shrunken log2 fold change” value was -0.121. For RRIRGRPPRLPRPRPRPFYRPRP, the “shrunken log2 fold change” value was -0.26. RRIRGRPPRLPRPRPRPEVNPRP was tested, and the “shrunken log2 fold change” value was 1.62. For RRIRERPPRLPRPRPRPLVMPRP, the “shrunken log2 fold change” value was -0.0346. In the case of RRIRCRPPRLPRPRPRPNTGPRP, the “shrunken log2 fold change” value is reported as -0.657. RRIRERPPRLPRPRPRPNIQPRP was tested, and the “shrunken log2 fold change” value was -0.357. RRIRLRPPRLPRPRPRPHWGPRP was tested, and the “shrunken log2 fold change” value was 0.0796. RRIRKRPPRLPRPRPRPDKGPRP was tested, and the “shrunken log2 fold change” value was -0.022. For RRIRFRPPRLPRPRPRPWHWPRP, the “shrunken log2 fold change” value was 0.00852. In the case of RRIRKRPPRLPRPRPRPKSIPRP, the “shrunken log2 fold change” value is reported as -0.0265. For RRIRFRPPRLPRPRPRPNPVPRP, the “shrunken log2 fold change” value was -0.117. RRIRARPPRLPRPRPRPHESPRP was tested, and the “shrunken log2 fold change” value was 0.779. In the case of RRIRVRPPRLPRPRPRPNISPRP, the “shrunken log2 fold change” value is reported as -0.321. For RRIRYRPPRLPRPRPRPYCKPRP, the “shrunken log2 fold change” value was -1.32. In the case of RRIRRRPPRLPRPRPRPTLNPRP, the “shrunken log2 fold change” value is reported as 0.511.
